Assay results from US20260224727A1, “COMPOUNDS AND METHODS FOR TREATING, AMELIORATING, OR […]” (Yale University, priority 2023, published 2026).
Bridge positions count the residues as written; N and C are the ends. Square brackets hold non-standard residues; d marks the D form. Ends that are not written are not given here. Cit = NC(=O)NCCC[C@H](N)C(=O)O

T1: recombinant biotin-ASGPR1 (Homo sapiens, UniProt P07306)
T1 construct: purchased Viva Biotech
T1 sequence (P07306 1-291): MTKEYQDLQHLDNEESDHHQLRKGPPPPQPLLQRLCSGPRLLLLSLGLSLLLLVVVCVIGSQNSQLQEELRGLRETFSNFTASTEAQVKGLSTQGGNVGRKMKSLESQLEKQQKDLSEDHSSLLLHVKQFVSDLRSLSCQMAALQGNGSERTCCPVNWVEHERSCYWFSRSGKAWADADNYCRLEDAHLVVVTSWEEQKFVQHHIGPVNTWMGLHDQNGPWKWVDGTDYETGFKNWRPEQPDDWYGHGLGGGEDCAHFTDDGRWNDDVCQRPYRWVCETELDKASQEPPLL

B1: CCP1-GN4 (peptide)
peptide: HQCHQEST[Cit]GRSRGRCGRSGS-OH
modifications: disulfide 3-16; not fully specified (N-terminus); also: Dab(N3) side-chain azide joined by CuAAC triazole to Target A001A-PEG4-Alkyne (tri-GalNAc)

How the values were obtained:
[1] = target: T1, recombinant biotin-ASGPR1; experiment: SPR binding to ASGPR1 (Biacore 8K)
Method: With reference to FIG. 5B, binding to ASGPR1 was characterized by surface plasmon resonance (SPR) on a Biacore 8K instrument. Preceding binding measurement, recombinant biotin-ASGPR1 (Viva Biotech) was diluted to a concentration of 2 μg/mL in a buffer containing 20 mM Tris pH 8.0, 200 mM NaCl, 1 mM TCEP, 2 mM CaCl2), and 0.01% Tween-20. A Sensor Chip SA (Cytiva) was conditioned with three injections of 1 M NaCl in 50 mM NaOH prior to capturing […] ASGPR on the sensor chip surface. Capture was performed at a flow rate of 5 μL/min with a target level of 1000 RU. CCP1-GN4 was serially diluted across 10 points to final test concentrations (25 nM, 8.3 nM, 2.8 nM, 0.93 nM, 0.3 nM, 0.1 nM, 0.03 nM, 0.01 nM, 0.004 nM, 0.0013 nM) in buffer composed of 20 mM Tris pH 8.0, 200 mM NaCl, 1 mM TCEP, 2 mM CaCl2), 0.01% Tween-20, and a final solvent composition of 3% DMSO.
Samples were injected over the sensor chip surface with a contact time of 180 seconds, dissociation time of 600 seconds, flow rate of 40 μL/min and temperature of 25° C. Data files were fit to multi-cycle kinetics and steady state models using Biacore Insight Evaluation software to determine kinetic and affinity binding parameters.

[2] = Plasma stability in human plasma (LCMS, percent remaining); assay type: in vitro ADME; conditions: 37° C., 2 hours incubation, read-out: T1/2 plasma stability
Method: (§1) With reference to FIGS. 6A and 6B, plasma stability […] of CCP1-GN4 was measured at WuXi Biologics. The compound was incubated in human, rat, or mouse plasma at 37° C. for 2 hours. Aliquots were taken at various time points and the percent remaining of CCP1-GN4 was quantified by LCMS. For plasma protein binding (PPB), the compound (CCP1-GN4) was incubated with human, rat, or mouse plasma protein and the degree of plasma protein binding was determined by ultracentrifugation and LCMS.

[3] = Plasma stability in mouse plasma (LCMS, percent remaining); assay type: in vitro ADME; conditions: 37° C., 2 hours incubation, read-out: T1/2 plasma stability
Method: as §1

[4] = Plasma stability in rat plasma (LCMS, percent remaining); assay type: in vitro ADME; conditions: 37° C., 2 hours incubation, read-out: T1/2 plasma stability
Method: as §1

[5] = target: mouse anti-citrullinated epitope recombinant antibody clone 12G1 (anti-CCP1); experiment: SPR binding of CCP1-GN4 to immobilized anti-CCP1 antibody (Biacore S200, steady state affinity); conditions: antibody clone 12G1 immobilized on CM5 chip, 25° C., steady state affinity model, read-out: KD (anti-CCP)
Method: With reference to FIG. 5A, binding of CCP1-GN4 was assessed using a surface plasmon resonance (SPR) on a Biacore S200 instrument. Prior to binding studies, 20 μg/mL mouse anti-citrullinated epitope recombinant antibody clone 12G1 (anti-CCP1) (Creative BioLabs) was immobilized to a Series S Sensor Chip CM5 using amine coupling to a target of 1.000 response units (RU) in 10 mM sodium acetate buffer pH 5.5. In parallel, normal human IgG isotype control (R&D Systems) was immobilized as a reference subtraction control using identical conditions. Sensor chips and reagents necessary for amine coupling were purchased from Cytiva.
CCP1-GN4 was serially diluted in 100% DMSO and transferred to a 96-well microplate. 1×HBS-P buffer (Cytiva) was added to dilute sample to final test concentrations (1000 nM, 250 nM, 62.5 nM, 15.6 nM, 3.9 nM, 1 nM) in 1% DMSO. A solution of 1×HBS-P (Cytiva) containing 1% DMSO was prepared as running buffer immediately prior to binding experiments.
Samples were injected over the sensor chip with a contact time of 300 seconds, dissociation time of 600 seconds, and a flow rate of 30 μL/minute at 25° C. Between injections, a solution containing 50% DMSO in 1×HBS-P buffer was used to wash any remaining bound analyte from the sensor chip surface. […]

[6] = target: mouse anti-citrullinated epitope recombinant antibody clone 12G1 (anti-CCP1) (Creative BioLabs)
[7] = target: recombinant biotin-ASGPR1 (Viva Biotech); experiment: SPR (Biacore 8K), biotin-ASGPR1 captured on Sensor Chip SA, CCP1-GN4 as analyte, multi-cycle kinetics, 1:1 binding model, 25 C
[8] = target: recombinant biotin-ASGPR1 (Viva Biotech); experiment: SPR (Biacore 8K), biotin-ASGPR1 captured on SA chip, CCP1-GN4 as analyte, multi-cycle kinetics and steady state models
[9] = target: mouse anti-citrullinated epitope recombinant antibody clone 12G1 (anti-CCP1) (Creative BioLabs); experiment: SPR (Biacore S200), antibody 12G1 amine-coupled on CM5, CCP1-GN4 as analyte, steady state affinity model

| Molecule | Kd [1] | half-life [2] | half-life [3] | half-life [4] | Kd [5] | EC50 (read off the curve); Anti-CCP1 MFI of 12G1 with goat anti-mouse AF488 in HEK-293-ASGPR cells [6] | koff [7] | kon [7] | Kd [8] | Kd [9] |
| --- | --- | --- | --- | --- | --- | --- | --- | --- | --- | --- |
| CC(=O)N[C@H]1[C@H](OCCOCCOCCNC(=O)CCOCC(COCCC(=O)NCCOCCOCCO[C@@H]2O[C@H](CO)[C@H](O)[C@H](O)[C@H]2NC(C)=O)(COCCC(=O)NCCOCCOCCO[C@@H]2O[C@H](CO)[C@H](O)[C@H](O)[C@H]2NC(C)=O)NC(=O)CNC(=O)CCOCCOCCOCCOCc2cn(CC[C@H](N)C(=O)N[C@@H](Cc3c[nH]cn3)C(=O)N[C@@H](CCC(N)=O)C(=O)N[C@H]3CSSC[C@@H](C(=O)NCC(=O)N[C@@H](CCCNC(=N)N)C(=O)N[C@@H](CO)C(=O)NCC(=O)N[C@@H](CO)C(=O)O)NC(=O)[C@H](CCCNC(=N)N)NC(=O)CNC(=O)[C@H](CCCNC(=N)N)NC(=O)[C@H](CO)NC(=O)[C@H](CCCNC(=N)N)NC(=O)CNC(=O)[C@H](CCCNC(N)=O)NC(=O)[C@H]([C@@H](C)O)NC(=O)[C@H](CO)NC(=O)[C@H](CCC(=O)O)NC(=O)[C@H](CCC(N)=O)NC(=O)[C@H](Cc4c[nH]cn4)NC3=O)nn2)O[C@H](CO)[C@H](O)[C@@H]1O [CCP1-GN4] | 1.92 nM | > 4.83 h | > 4.83 h | > 4.83 h | 75 nM |  |  |  |  |  |
| B1 |  |  |  |  |  | 50 nM | 0.029 s⁻¹ | 1.51e+07 M⁻¹ s⁻¹ | 1.92 nM | 75 nM |
